Numbering of substitutions follows the chain as printed. Names and notes keep the numbering of the source.
What was measured:
Stau dsRBD5 Y971K = target: T1, Stau dsRBD5 Y971K (Drosophila, UniProt P25159 951-1018); assay: ITC
T1 chain: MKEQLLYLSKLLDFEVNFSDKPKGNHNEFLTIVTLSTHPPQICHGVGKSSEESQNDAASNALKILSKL

Trx-Stau951-1,018 [1] = target: T2, Trx-Stau951-1,018 (Drosophila, UniProt P25159 951-1018); assay: ITC; Mira fragments injected into Stau fragments; 25 °C; 50 mM Tris pH 8.0, 100 mM NaCl, 1 mM EDTA
T2 chain: T1 chain with K21Y

Trx-Stau951-1,018 [2] = target: T2, Trx-Stau951-1,018; assay: ITC

B1: Trx-Mira514–595 (domain or fragment)
chain: NYQLTLTNTRATVNILMERLKKSDADVEQYRAELESVQLAKGALEQSYLVLQADAEQLRQQLTESQDALNALRSSSQTLQSE
Stau dsRBD5 Y971K
  Kd: 8.7 µM
Trx-Stau951-1,018 [1]
  Kd: 1.07 µM

B2: Mira514–595 R532A (domain or fragment)
chain: B1 chain with R19A
Trx-Stau951-1,018 [2]
  Kd: 72.5 µM

Source: paper PMC4600727 (2015)
